The test system of one data set is human PBMC. In words: Cell proliferation assay (3H-thymidine incorporation), stimulated PBMC. It counts as cell-based. The protocol: Isolation of peripheral blood lymphocytes (PBMC) was performed as described previously^3. All cells were incubated at 37° C. with 5% CO2. Jurkat T cells and PBMC were cultured in RPMI 1640 (Invitrogen, Karlsruhe, Germany) with 10% FCS. EL-4 T cells were cultured in DMEM (Invitrogen) supplemented with 10% horse serum (Cambrex, Verviers, Belgium).
Cells (10^5 PBMC, purified primary T cells or 10^4 Jurkat/EL-4 cells/well) were cultured in 96-well flat-bottom plates in complete medium. PBMC were stimulated in triplicate with PMA (20 ng/ml; Sigma) and Ionomycin (100 ng/ml; Sigma) and all cells were grown with or without indicated total protein concentrations of H. pylori supernatants or recombinant proteins. Primary human T cells were stimulated with either PMA/Ionomycin as described above or with anti-CD3/CD28 beads (Invitrogen) at 1 bead per T cell. Cellular proliferation was determined after 48 h by methyl-[^3H]-thymidine (GE Healthcare) incorporation using a Packard Direct Beta Counter Matrix 9600 (Packard Instruments Co, Downer's Grove, Ill.).
(In general: Incorporation of labelled thymidine or its analogues reports DNA synthesis.)

The subject of data set [1] is gamma glutamyl transpeptidase of Helicobacter pylori (HPGGT). In words: GGT activity assay: inhibition of GGT by acivicin. It counts as biochemical. The protocol: (§1) The assay for GGT activity was adapted from the method of Meister et al.^27 Briefly, reaction buffer consisting of 20 mM glycyl-glycine (Sigma) as acceptor, 2.5 mM L-γ-glutamyl-p-nitroanilide (Calbiochem, Schwalbach, Germany) as donor substrate and 100 mM Tris-HCl (pH 8.0) was prepared. In some experiments pH of assay buffer was varied between 2 and 10. Supernatants of different H. pylori strains, purified recombinant HPGGT or equine kidney GGT (Sigma) were added and the reaction proceeded at 37° C. for 30 min. The release of p-nitroanilide was monitored by spectrophotometry at 405 nm. One unit of activity was defined as the quantity of enzyme that released 1 μmol of p-nitroanilide per min and per mg of protein at 37° C.
This compound acts as an irreversible and competitive inhibitor of GGT. […] Similar results were obtained for recombinant HPGGT (data not shown).

For the next data set, the system named is HPGGT. The data set is described as follows: Immunization of animals, sera assayed for inhibition of GGT catalytic activity. It counts as in vivo, Helicobacter pylori. The note with it: mice, sera taken 6 weeks after immunization.
From the text: FIG. 9 is a diagram indicating the inhibitory effect of sera from immunized or infected mice on enzymatic activity of HPGGT. Mice were immunized with the indicated formulations or received PBS as control or were infected with live H. pylori. Sera were taken from tail veins 6 weeks after immunization or infection and assayed for inhibitory activity towards GGT catalytic activity.
as §1

Data set [2] concerns Jurkat T cells. The data set is described as follows: Analysis of apoptosis (Annexin V-FITC/PI, FACS). In kind it is cell-based. The settings on record: 1 μM, 24 h. The protocol: 5×10^5 Jurkat T cells were treated as indicated. After 24 h cells were harvested by centrifugation, washed, resuspended in 500 μl AnnexinV-binding buffer (10 mM HEPES/NaOH, pH7.4, 140 mM NaCl, 2.5 mM CaCl2) and stained for 10 min each with 5 μl recombinant Annexin V-FITC (Caltag, Burlingame, Calif.) and 0.5 μg/ml PI at room temperature in the dark. Apoptotic cells were measured by FACS analysis (see above). Data were analyzed using Cell Quest software.

The next data set relates to IFN-γ. The data set is described as follows: IFN-γ ELISA of PBMC supernatants. In kind it is cell-based, human. The settings on record: PBMC stimulated with PMA and Ionomycin, 24 h. The protocol:
(§2) PBMC (5×10^5 each) were treated for 24 h as depicted. At indicated time points cells were removed by centrifugation and supernatants were analyzed for amounts of IL-2 (eBioscience, San Diego, Calif.) and IFN-γ (Biosource, Solingen, Germany) by ELISA according to the manufacturer's instructions. The lower limits of detection were 4 pg/ml.
(§3) To date so far nothing was known about a role of HPGGT during suppression of the host's immune response. The inhibition of lymphocyte proliferation by HPGGT reported here might result from interference with cytokine secretion of human PBMCs. To test this hypothesis, cells were stimulated with PMA and Ionomycin and incubated with or without H. pylori wild-type and ΔGGT supernatants or recombinant HPGGT at different concentrations for 24 h. […] In addition secretion of IFN-γ was not reduced (FIG. 5B).
On the technique in general: ELISA stands for enzyme-linked immunosorbent assay.

Data set [3] in a line: GGT activity assay: catalytic activity of GGT proteins and fractions. It counts as biochemical. The protocol:
as §1

For another data set, the system named is IL-2. In words: IL-2 ELISA of PBMC supernatants. In kind it is cell-based, human. The note with it: PBMC stimulated with PMA and Ionomycin, 24 h, compared to stimulated control. The protocol:
as §2, §3

In data set [4] the test system is Jurkat T cells. The data set is described as follows: Immunoblotting of cell cycle regulatory and signaling proteins. In kind it is cell-based. The protocol: For immunoblot analysis 10^7 Jurkat T cells or PBMC were used. Prior to the experiment, Jurkat cells were serum starved for 18 h in medium containing 0.2% FCS. Afterwards, cells were released with 10% FCS and treated as depicted. At the indicated time points, the cells were harvested, washed once with ice-cold PBS, resuspended in 1× lysis buffer (Cell Signaling Technology, Danvers, Mass.) containing protease inhibitors (2.5 mM sodium pyrophosphate, 1 mM β-glycerophosphate, 1 mM Na3VO4, 1 μg/ml leupeptin, 1 mM PMSF; Sigma) and sonicated with a micro tip sonifier on ice for 30 sec. Lysates were centrifuged at 10000×g for 10 min at 4° C. and supernatants were used for immunoblotting. Equal amounts of protein (determined by Bradford assay, BioRad) were separated by Tricine-SDS-PAGE and electrotransferred onto nitrocellulose membranes (BioRad). For detection, membranes were probed with primary antibodies anti-p27, anti-Cyclin D3, anti-Cyclin E, anti-c-Myc (Dianova, Hamburg, Germany), anti-Cdk2 (Santa-Cruz Biotechnology, Heidelberg, Germany), anti-phospho-AKT (Ser 473), anti-phospho-c-Raf (Ser 338), anti-phospho-p70S6K (Thr 389; Cell Signaling), anti-phospho-FKHRL1/Foxo3 (Thr 32; Upstate, Lake Placid, N.Y.), anti-Actin (Sigma) and anti-VacA (Austral Biologicals, San Ramon, Calif.). […] For detection of the large subunit of the HPGGT protein a polyclonal rabbit anti-GGT antibody raised against a synthesized peptide IQPDTVTPSSQIKPGM including amino acid residues 356 to 371 of the HP 1118 gene product (Charles River, Kisslegg, Germany) was used.
In general terms: In western blotting, separated proteins are transferred to a membrane and probed.

Another data set concerns human PBMCs. In words: Immunoblotting of cell cycle regulatory proteins in PBMC. In kind it is cell-based. The settings on record: 24 h and 48 h. How it is done: FIG. 6B an SDS PAGE of the proteins obtained from 10^7 PBMC which were incubated with different concentrations of HPWT and HPΔGGTSN or rHPGGT for 24 h and 48 h and subsequently lysed. 35 μg of total protein were separated by SDS-PAGE and analyzed by immunoblotting. Levels of indicated proteins were determined using the corresponding antibodies. Data were reproduced 2 times with similar results. (HP=H. pylori, SN=supernatant, WT=wild-type).
For immunoblot analysis 10^7 Jurkat T cells or PBMC were used. Prior to the experiment, Jurkat cells were serum starved for 18 h in medium containing 0.2% FCS. Afterwards, cells were released with 10% FCS and treated as depicted. At the indicated time points, the cells were harvested, washed once with ice-cold PBS, resuspended in 1× lysis buffer (Cell Signaling Technology, Danvers, Mass.) containing protease inhibitors (2.5 mM sodium pyrophosphate, 1 mM β-glycerophosphate, 1 mM Na3VO4, 1 μg/ml leupeptin, 1 mM PMSF; Sigma) and sonicated with a micro tip sonifier on ice for 30 sec. Lysates were centrifuged at 10000×g for 10 min at 4° C. and supernatants were used for immunoblotting. Equal amounts of protein (determined by Bradford assay, BioRad) were separated by Tricine-SDS-PAGE and electrotransferred onto nitrocellulose membranes (BioRad). […]

Setting [5] is: incubation of the HPGGT with acivicin.
The mark [6] stands for this setting: preincubation of HPWTSN with acivicin (50 μM) for 2 h at 37° C.

The record followed here is US9090676B2, “Method for treating Helicobacter pylori infections” (priority 2006, dated 2015).

Entries after “also recorded” stand apart in the source; their conditions may differ.

On to `N[C@H](C(=O)O)[C@@H]1CC(Cl)=NO1` [acivicin], for which the “inhibitory effect of the enzyme (HPGGT) towards lymphocytes after incubation with acivicin” value in the data set on human PBMC (setting [5]) is given as “completely abolishes”. In the data set on human PBMC (setting [6]), the “inhibition of PBMC proliferation by H. pylori wild-type supernatants after pretreatment with acivicin” value is “abrogated; also recorded: completely repressed”. Besides, in [1] (setting [5]), the “catalytic activity of HPGGT after incubation with acivicin” value is “completely abolishes”. The “GGT activity of H. pylori wild-type supernatants after pretreatment with acivicin” value in data set [1] (setting [6]) is “abrogated; also recorded: completely repressed”.
“IQPDTVTPSSQIKPGM [peptide 356-371, peptide of HPGGT residues 356 to 371, far from the catalytic center]”: the “inhibitory antibodies / inhibitory immune response against HPGGT in serum” value in the data set with HPGGT is “No inhibitory immune response”.
As for `CN[C@@H]1C[C@H]2O[C@@](C)([C@@H]1OC)n1c3ccccc3c3c4c(c5c6ccccc6n2c5c31)C(=O)NC4` [staurosporin, reference compound], the “apoptosis (positive control)” value in the data set with Jurkat T cells [2] was “strongly induced apoptosis”.

B1: recombinant HPGGT: recombinant His-tagged gamma glutamyl transpeptidase of H. pylori expressed in E. coli (protein, listed as Helicobacter pylori)
chain: MRRSFLKTIGLGVIALFLGLLNPLSAASYPPIKNTKVGLALSSHPLASEIGQKVLEEGGNAIDAAVAIGFALAVVHPAAGNIGGGGFAVIHLANGENVALDFREKAPLKATKNMFLDKQGNVVPKLSEDGYLAAGVPGTVAGMEAMLKKYGTKKLSQLIDPAIKLAENGYAISQRQAETLKEARERFLKYSSSKKYFFKKGHLDYQEGDLFVQKDLAKTLNQIKTLGAKGFYQGQVAELIEKDMKKNGGIITKEDLASYNVKWRKPVVGSYRGYKIISMSPPSSGGTHLIQILNVMENADLSALGYGASKNIHIAAEAMRQAYADRSVYMGDADFVSVPVDKLINKAYAKKIFDTIQPDTVTPSSQIKPGMGQLHEGSNTTHYSVADRWGNAVSVTYTINASYGSAASIDGAGFLLNNEMDDFSIKPGNPNLYGLVGGDANAIEANKRPLSSMSPTIVLKNNKVFLVVGSPGGSRIITTVLQVISNVIDYNMNISEAVSAPRFHMQWLPDELRIEKFGMPADVKDNLTKMGYQIVTKPVMGDVNAIQVLPKTKGSVFYGSTDPRKEF
modifications: His-tag
notes: recombinant His-tagged gamma glutamyl transpeptidase of H. pylori expressed in E. coli
As to B1, in the data set with IFN-γ, the “secretion of IFN-γ” value is on record as “not reduced”. The “enzymatic GGT activity” value in data set [3] (pH 8.0, 37° C., 30 min) is given as “strong GGT activity”. Also, the “pH range of catalytic activity” value in [3] (pH of assay buffer varied between 2 and 10) is 2-10. Further, the “reduction of IL-2 secretion” value in the data set on IL-2 was “none of these treatments led to reduction”. Besides, the Cyclin levels entry in the data set with Jurkat T cells [4] (2 μg/ml) was “complete reduction”. In the data set with Jurkat T cells [4] (Jurkat T cells and PBMC), the “cellular levels and phosphorylation of AKT, p70S6k and Foxo 3 (PI3K-signaling)” value is given as “not reduced”; the “cellular levels of c-Myc and phosphorylation of c-Raf (Ras-dependent pathway)” value is reported as “reduced”. In addition, the “cell cycle regulating proteins (Cyclin D3, E1) in PBMC” value with human PBMCs is reported as “even stronger reduction”. In addition, the “inhibition of PBMC proliferation” value in the data set on human PBMC (PBMC stimulated with PMA/Ionomycin, 48 h) was “efficiently inhibited”. For the same molecule, in the data set with human PBMC (medium without the amino acid glutamine), the “inhibitory effect of HPGGT on lymphocyte proliferation in the absence of glutamine” value is reported as “completely abolished”.
